B1: MetO PLD (MetO-PLD polypeptide of the invention; SEQ ID NO: 2 with oxidized methionine residues) (other)
chain: GRFGGNPGGFGNQGGFGNSRGGGAGLGNNQGSNMGGGMNFGAFSINPAMMAAAQAALQSSWGMMGMLASQQNQSGPSGNNQNQGNMQREPNQAFGSGNNSYSGSNSGAAIGWGSASNAGSGSGFNGGFGSSMDSKSSGWGM
modifications: methionine sulfoxide at all Met residues (M307, M311, M322, M323, M336, M337, M339, M359, M405, M414, numbered on full human TDP-43, SEQ ID NO: 3); full MetO validated by mass spectrometry and NMR (M414 not detected by MS)

Tests used:
[1] = biological target: prion-like domain (PLD) of human TDP-43 (TDP-43 274-414), unmodified (human) (UniProt Q13148); assay: cell-based or functional assay
[2] = biological target: prion-like domain (PLD) of human TDP-43 (TDP-43 274-414), unmodified (human) (UniProt Q13148); assay: 15N CPMG relaxation dispersion, 200 µM PLD, region 321-343; self-assembly
[3] = biological target: the molecule itself; assay: cell-based or functional assay

Molecule	t1/2 (h) of ThT aggregation, 10 µM PLD monomer, 0 % PLD seeds [1]	t1/2 (h) of ThT aggregation, 10 µM PLD monomer, 0.1 % PLD seeds [1]	t1/2 (h) of ThT aggregation, 10 µM PLD monomer, 0.5 % PLD seeds [1]	t1/2 (h) of ThT aggregation, 10 µM PLD monomer, 1 % PLD seeds [1]	kex (exchange rate, 15N CPMG) [2]	t1/2 (h) of ThT aggregation, 10 µM MetO PLD monomer, 0 % MetO PLD seeds [3]	t1/2 (h) of ThT aggregation, 10 µM MetO PLD monomer, 0.1 % MetO PLD seeds [3]	t1/2 (h) of ThT aggregation, 10 µM MetO PLD monomer, 0.5 % MetO PLD seeds [3]	t1/2 (h) of ThT aggregation, 10 µM MetO PLD monomer, 1 % MetO PLD seeds [3]
prion-like domain (PLD) of human TDP-43 (TDP-43 274-414), unmodified (from UniProt Q13148 274-414)	4.87 h	4.99 h	2.88 h	2.86 h	> 2000 s⁻¹	–	–	–	–
B1	–	–	–	–	–	54.9 h	38.3 h	18.7 h	18 h

Reference: EP4389215A1 (Consejo Superior De Investigaciones Científicas, dated 2024)
